Source: the supplement of paper PMC7125110
± gives the standard error. For some assays here: Fewer inactive variants are shown than the library holds.

B1: glmS ribozyme (parent)
chain: AUAAAAGCGCCAGAACUACAGAAAUGUAGUUGACGAGGAGGAGGUUUAUCGAAUUUUCGGCGGAUGCCUCCAAA

What was measured:
Conditions in all cases: with glucosamine-6-phosphate
glucosamine-6-phosphate [1] = variants of: B1; assay: kcat; higher = faster cleavage; RNA array
How it was run: (§1)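 The measurements used barcoded ribozyme variants on sequenced MiSeq chips, transcribed in situ by E. coli RNA polymerase and tracked at 37 °C with a hybridised Cy3 probe. Glucosamine-6-phosphate, 40 μM to 10 mM in HEPES/KCl/Mg(OAc)2 buffer, was flowed in while tiles were imaged over ~14 h. Baseline-normalised signals, also normalised to non-cleaving reference variants, gave per-tile medians that were fit to one- or two-exponential decays for kobs. kcat and KM resulted from weighted Michaelis–Menten fits across concentrations.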

glucosamine-6-phosphate [2] = variants of: B1; assay: KM; higher = weaker cofactor use; RNA array
How it was run: as §1

glucosamine-6-phosphate [3] = variants of: B1; assay: self-cleavage kobs at 40 uM GlcN6P; higher = faster cleavage; RNA array
How it was run: as §1

glucosamine-6-phosphate [4] = variants of: B1; assay: self-cleavage kobs at 160 uM GlcN6P; higher = faster cleavage; RNA array
How it was run: as §1

glucosamine-6-phosphate [5] = variants of: B1; assay: self-cleavage kobs at 640 uM GlcN6P; higher = faster cleavage; RNA array
How it was run: as §1

glucosamine-6-phosphate [6] = variants of: B1; assay: self-cleavage kobs at 2500 uM GlcN6P; higher = faster cleavage; RNA array
How it was run: as §1

glucosamine-6-phosphate [7] = variants of: B1; assay: self-cleavage kobs at 10000 uM GlcN6P; higher = faster cleavage; RNA array
How it was run: as §1

Variant	kcat (glucosamine-6-phosphate [1])	KM (glucosamine-6-phosphate [2])	self-cleavage kobs at 40 uM GlcN6P (glucosamine-6-phosphate [3])	self-cleavage kobs at 160 uM GlcN6P (glucosamine-6-phosphate [4])	self-cleavage kobs at 640 uM GlcN6P (glucosamine-6-phosphate [5])	self-cleavage kobs at 2500 uM GlcN6P (glucosamine-6-phosphate [6])	self-cleavage kobs at 10000 uM GlcN6P (glucosamine-6-phosphate [7])
C16A U55C	0.00122 ± 0.00014 s⁻¹	2120 ± 400 µM	1.93e-05 ± 8.5e-06 s⁻¹	7.75e-05 ± 1.1e-05 s⁻¹	0.00033 ± 4.4e-05 s⁻¹	0.000717 ± 8e-05 s⁻¹	0.000949 ± 0.00011 s⁻¹
U56A C58U	0.00027 ± 2.5e-05 s⁻¹	3350 ± 650 µM			5.03e-05 ± 1.6e-05 s⁻¹	0.000108 ± 1.9e-05 s⁻¹	0.000208 ± 3.2e-05 s⁻¹
A15G C58A	0.000835 ± 8.2e-05 s⁻¹	5240 ± 790 µM		2.68e-05 ± 1.2e-05 s⁻¹	8.63e-05 ± 1e-05 s⁻¹	0.000303 ± 4e-05 s⁻¹	0.000537 ± 5.2e-05 s⁻¹
G37C U54G U55G	5.85e-05 ± 2.8e-06 s⁻¹	2190 ± 470 µM					4.79e-05 ± 1.5e-05 s⁻¹
A39U A52U	0.000201 ± 4.1e-05 s⁻¹	3930 ± 1900 µM				9.27e-05 ± 1.2e-05 s⁻¹	0.000141 ± 1.1e-05 s⁻¹
C10G C58A	1.01e-05 ± 1.8e-06 s⁻¹				< 1e-05 s⁻¹		< 1e-05 s⁻¹
G41A C71G	0.000168 ± 7.8e-06 s⁻¹	1080 ± 150 µM			6.55e-05 ± 9.8e-06 s⁻¹	0.000106 ± 2.1e-05 s⁻¹	0.000154 ± 1.4e-05 s⁻¹
A14C C71G	0.000465 ± 0.00016 s⁻¹			3.11e-05 ± 1e-05 s⁻¹	0.000228 ± 7.6e-05 s⁻¹	0.00017 ± 2.9e-05 s⁻¹	0.00038 ± 4.5e-05 s⁻¹
C11A A14G	0.000935 ± 5.4e-05 s⁻¹	1790 ± 200 µM	1.65e-05 ± 7.4e-06 s⁻¹	7.64e-05 ± 2e-05 s⁻¹	0.000261 ± 3.2e-05 s⁻¹	0.00051 ± 7.7e-05 s⁻¹	0.000802 ± 7.8e-05 s⁻¹
A12U G41U	0.0013 ± 0.00058 s⁻¹		0.000239 ± 2.1e-05 s⁻¹	0.00041 ± 5.1e-05 s⁻¹	0.000814 ± 8.1e-05 s⁻¹	0.00212 ± 0.00022 s⁻¹	
A39G U54C	0.0135 ± 0.004 s⁻¹	759 ± 340 µM	0.000807 ± 0.00031 s⁻¹	0.00183 ± 0.0008 s⁻¹	0.00774 ± 0.0024 s⁻¹	0.00946 ± 0.0035 s⁻¹	
A52U U55A	0.000247 ± 3.7e-05 s⁻¹	2490 ± 990 µM			3.67e-05 ± 1.3e-05 s⁻¹	0.000147 ± 1.8e-05 s⁻¹	0.000191 ± 1.8e-05 s⁻¹
G59A C71A	< 1e-05 s⁻¹		< 1e-05 s⁻¹				
A15U U49A C67A	2.42e-05 ± 8.1e-06 s⁻¹						
A12C A52G	0.000882 ± 0.00021 s⁻¹	2290 ± 880 µM	2.37e-05 ± 1e-05 s⁻¹	4.98e-05 ± 1.3e-05 s⁻¹	0.000216 ± 2.4e-05 s⁻¹	0.000359 ± 6.3e-05 s⁻¹	0.00082 ± 0.00011 s⁻¹
G38U C58G	< 1e-05 s⁻¹						

Variant	kcat (glucosamine-6-phosphate [1])	KM (glucosamine-6-phosphate [2])	self-cleavage kobs at 40 uM GlcN6P (glucosamine-6-phosphate [3])	self-cleavage kobs at 160 uM GlcN6P (glucosamine-6-phosphate [4])	self-cleavage kobs at 640 uM GlcN6P (glucosamine-6-phosphate [5])	self-cleavage kobs at 2500 uM GlcN6P (glucosamine-6-phosphate [6])	self-cleavage kobs at 10000 uM GlcN6P (glucosamine-6-phosphate [7])
A15C G29C	0.00165 ± 0.00021 s⁻¹	2620 ± 510 µM	3.67e-05 ± 1e-05 s⁻¹	8.7e-05 ± 1.5e-05 s⁻¹	0.000333 ± 4.2e-05 s⁻¹	0.000772 ± 9.9e-05 s⁻¹	0.00135 ± 0.00018 s⁻¹
C16U U46C	0.0025 ± 0.00034 s⁻¹	1320 ± 290 µM	7.03e-05 ± 1.7e-05 s⁻¹	0.000295 ± 4.9e-05 s⁻¹	0.000646 ± 0.00017 s⁻¹	0.00192 ± 0.00029 s⁻¹	0.00208 ± 0.00033 s⁻¹
A15G U65A	0.00646 ± 0.0018 s⁻¹	3290 ± 1300 µM	9.64e-05 ± 1.3e-05 s⁻¹	0.000343 ± 0.00011 s⁻¹	0.000867 ± 0.00018 s⁻¹	0.00193 ± 0.00048 s⁻¹	0.00545 ± 0.00064 s⁻¹
A6G A64G	1.81e-05 ± 5.8e-06 s⁻¹		< 1e-05 s⁻¹				
A15U U46G	0.000901 ± 0.00012 s⁻¹	1650 ± 380 µM		6.81e-05 ± 1e-05 s⁻¹	0.000292 ± 3.4e-05 s⁻¹	0.000642 ± 8.4e-05 s⁻¹	0.000725 ± 7.1e-05 s⁻¹
A48G	0.000117 ± 1.3e-05 s⁻¹	845 ± 350 µM		1.61e-05 ± 3.1e-06 s⁻¹	4.49e-05 ± 1.5e-06 s⁻¹	0.00011 ± 2.2e-06 s⁻¹	0.000103 ± 1.5e-06 s⁻¹
G40U U56G	0.00147 ± 0.00055 s⁻¹		4.98e-05 ± 1.7e-05 s⁻¹	0.000107 ± 1.6e-05 s⁻¹	0.000431 ± 6e-05 s⁻¹	0.00136 ± 0.00015 s⁻¹	0.000885 ± 0.00019 s⁻¹
U47C C58G	6.37e-05 ± 7.3e-07 s⁻¹	2170 ± 92 µM				3.41e-05 ± 1.1e-05 s⁻¹	5.23e-05 ± 7.5e-06 s⁻¹
G37A U55A	0.00489 ± 0.0022 s⁻¹		0.000128 ± 5.4e-05 s⁻¹	0.000133 ± 2.8e-05 s⁻¹	0.000667 ± 0.00015 s⁻¹	0.00226 ± 0.00037 s⁻¹	0.00286 ± 0.00068 s⁻¹
C11A U56G	0.00015 ± 3.9e-05 s⁻¹				6.35e-05 ± 1.2e-05 s⁻¹	7.76e-05 ± 1.1e-05 s⁻¹	0.000155 ± 1.9e-05 s⁻¹
C16U G32U	0.0024 ± 0.00062 s⁻¹	8100 ± 2900 µM		4.18e-05 ± 1e-05 s⁻¹	0.000214 ± 3.2e-05 s⁻¹	0.000519 ± 5.8e-05 s⁻¹	0.00137 ± 0.00015 s⁻¹
G43U U45G	0.00603 ± 0.00084 s⁻¹	1980 ± 380 µM	0.00013 ± 1.9e-05 s⁻¹	0.000412 ± 0.00012 s⁻¹	0.00124 ± 0.00027 s⁻¹	0.00422 ± 0.0011 s⁻¹	0.005 ± 0.00078 s⁻¹
C61U G63C	< 1e-05 s⁻¹					< 1e-05 s⁻¹	
C10U C11U A12G	2.44e-05 ± 6.4e-06 s⁻¹			< 1e-05 s⁻¹			
C10U C70A	2.4e-05 ± 6e-06 s⁻¹					3.1e-05 ± 1.5e-05 s⁻¹	
